Reference: US20120231006A1 (Amgen, published 2012)

Assays:
[1] = target: T1, mOrai1-hOrai1 ECL2 (…) protein (human/mouse chimera, UniProt Q8BWG9 1-304 (mouse entry)); test: FACS, 293EBNA; design: concentration or dose not given beside the values
T1 construct: also called Ch
Text: (§1) FIG. 16A-D illustrates the results of FACS analysis showing binding to the indicated mOrai1-hOrai1 ECL2 chimeric mutants expressed on the surface of HEK-293-EBNA cells. Transfected cells were stained first with recombinant monoclonal antibodies then counter-stained with a secondary phycoerythrin-labeled goat (“Gt”) anti-human (“Hu”) IgG F(ab′)₂ antibody fragment and visualized using FACS. In FIG. 16B and FIG. 16D, The values of Relative Fluorescence Intensity as Percent of Control (RFI-POC) are calculated from the relative fluorescence intensity geometric mean (Geo Mean). The geometric mean is an average calculated by multiplying a series of numbers and taking the nth root where n is the number of numbers in the series. It is a statistical average of a set of transformed numbers often used to represent a central tendency in a highly variable data set that minimizes the effects of extreme values.
(§2) Table 11A and Table 11B feature a schematic representation of the POC data from FIG. 16B and FIG. 16D, respectively, where the binding results are recorded as (+++) denoting binding POC from 40% to 100%, (++) for POC of 5% to less than 40%, (+) for POC from 1% to less than 5% and (−) as lack of binding with POC less than 1%.
T1 sequence (Q8BWG9 other isoform, or with tags, fused parts or gaps): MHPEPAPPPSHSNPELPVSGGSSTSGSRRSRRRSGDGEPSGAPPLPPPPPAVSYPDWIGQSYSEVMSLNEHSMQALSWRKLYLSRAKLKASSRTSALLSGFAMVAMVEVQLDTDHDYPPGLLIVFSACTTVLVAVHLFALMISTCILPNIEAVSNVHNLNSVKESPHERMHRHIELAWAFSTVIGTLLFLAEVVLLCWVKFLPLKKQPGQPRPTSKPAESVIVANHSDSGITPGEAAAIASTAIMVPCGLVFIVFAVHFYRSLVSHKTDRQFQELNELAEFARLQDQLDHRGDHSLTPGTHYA

[2] = target: T2, mOrai1-hOrai1 ECL2 (AESVIV) protein (human/mouse chimera, UniProt Q8BWG9 1-304 (mouse entry)); test: FACS, 293EBNA; design: concentration or dose not given beside the values
T2 construct: also called Ch
Text: as §1, §2

[3] = target: T3, mOrai1-hOrai1 ECL2 (…) protein (human/mouse chimera, UniProt Q8BWG9 1-304 (mouse entry)); test: FACS, 293EBNA; design: concentration or dose not given beside the values; remark: listed apart in the source
T3 construct: also called Ch
Text: as §1, §2
T3 sequence (Q8BWG9 other isoform, or with tags, fused parts or gaps): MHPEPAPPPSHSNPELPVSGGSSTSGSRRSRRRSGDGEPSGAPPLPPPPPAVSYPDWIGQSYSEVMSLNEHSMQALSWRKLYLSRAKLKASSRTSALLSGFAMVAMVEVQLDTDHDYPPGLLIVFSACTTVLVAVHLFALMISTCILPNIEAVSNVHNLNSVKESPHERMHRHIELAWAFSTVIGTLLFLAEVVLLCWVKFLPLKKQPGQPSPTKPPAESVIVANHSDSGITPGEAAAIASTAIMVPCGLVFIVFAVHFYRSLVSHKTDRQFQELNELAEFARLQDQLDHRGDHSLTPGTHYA

[4] = target: T4, mOrai1-hOrai1 ECL2 (…) protein (human/mouse chimera, UniProt Q8BWG9 1-304 (mouse entry)); test: FACS, 293EBNA; design: concentration or dose not given beside the values; remark: listed apart in the source
T4 construct: also called Ch
Text: as §1, §2
T4 sequence (Q8BWG9 other isoform, or with tags, fused parts or gaps): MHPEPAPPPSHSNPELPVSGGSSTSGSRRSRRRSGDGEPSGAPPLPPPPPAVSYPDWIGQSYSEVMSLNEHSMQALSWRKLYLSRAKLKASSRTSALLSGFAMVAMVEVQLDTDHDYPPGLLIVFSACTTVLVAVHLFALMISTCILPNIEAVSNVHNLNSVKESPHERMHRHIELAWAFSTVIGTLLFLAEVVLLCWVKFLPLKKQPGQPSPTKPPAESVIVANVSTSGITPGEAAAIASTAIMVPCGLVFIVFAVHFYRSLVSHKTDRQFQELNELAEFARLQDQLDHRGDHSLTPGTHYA

[5] = target: T5, hOrai1-mOrai1 ECL2 chimeric protein (human/mouse chimera, UniProt Q96D31 1-301); test: FACS, 293EBNA; design: concentration or dose not given beside the values
T5 construct: human Orai1 with mouse ECL2; also called Ch
Text: as §1, §2

[6] = target: T6, mOrai1-hOrai1 ECL2 (SPTKPPAE) protein (human/mouse chimera, UniProt Q8BWG9 1-304 (mouse entry)); test: FACS, 293EBNA; design: concentration or dose not given beside the values
T6 construct: also called Ch
Text: as §1, §2

[7] = target: T7, mOrai1-hOrai1 ECL2 (…) protein (human/mouse chimera, UniProt Q8BWG9 1-304 (mouse entry)); test: FACS, 293EBNA; design: concentration or dose not given beside the values; remark: listed apart in the source
T7 construct: also called Ch
Text: as §1, §2
T7 sequence (Q8BWG9 other isoform, or with tags, fused parts or gaps): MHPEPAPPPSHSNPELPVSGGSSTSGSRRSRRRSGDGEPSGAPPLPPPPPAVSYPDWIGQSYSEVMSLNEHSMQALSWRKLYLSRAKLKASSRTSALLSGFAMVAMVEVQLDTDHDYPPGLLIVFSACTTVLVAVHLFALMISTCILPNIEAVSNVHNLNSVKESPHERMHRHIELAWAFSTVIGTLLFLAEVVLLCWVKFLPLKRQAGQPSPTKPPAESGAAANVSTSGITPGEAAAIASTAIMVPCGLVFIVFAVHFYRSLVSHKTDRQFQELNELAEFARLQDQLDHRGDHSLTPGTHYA

[8] = target: T8, mOrai1-hOrai1 ECL2 (KPPAE) protein (human/mouse chimera, UniProt Q8BWG9 1-304 (mouse entry)); test: FACS, 293EBNA; design: concentration or dose not given beside the values
T8 construct: also called Ch
Text: as §1, §2

[9] = target: T9, mOrai1-hOrai1 ECL2 (VIV) protein (human/mouse chimera, UniProt Q8BWG9 1-304 (mouse entry)); test: FACS, 293EBNA, RFI-POC grade; design: concentration or dose not given beside the values
T9 construct: also called Ch
Text: as §1, §2

[10] = target: T10, mOrai1-hOrai1 ECL2 (HSD) protein (human/mouse chimera, UniProt Q8BWG9 1-304 (mouse entry)); test: FACS, 293EBNA, RFI-POC grade; design: concentration or dose not given beside the values
T10 construct: also called Ch
Text: as §1, §2

[11] = target: T11, mOrai1-hOrai1 ECL2 chimeric protein (human/mouse chimera, UniProt Q8BWG9 1-304 (mouse entry)); test: FACS, 293EBNA, RFI-POC grade; design: concentration or dose not given beside the values
T11 construct: mouse Orai1 with human ECL2; also called Ch
Text: as §1, §2

[12] = target: T1, mOrai1-hOrai1 ECL2 (…) protein; test: flow cytometry on HEK-293 cells transfected with the chimera (loss of binding experiment)
[13] = target: T2, mOrai1-hOrai1 ECL2 (AESVIV) protein; test: as above
[14] = target: T3, mOrai1-hOrai1 ECL2 (…) protein; test: as above; remark: listed apart in the source
[15] = target: T4, mOrai1-hOrai1 ECL2 (…) protein; test: as above; remark: listed apart in the source
[16] = target: T6, mOrai1-hOrai1 ECL2 (SPTKPPAE) protein; test: as above
[17] = target: T7, mOrai1-hOrai1 ECL2 (…) protein; test: as above; remark: listed apart in the source
[18] = target: T8, mOrai1-hOrai1 ECL2 (KPPAE) protein; test: as above
[19] = target: T12, human Orai1 (human, UniProt Q96D31 1-301); test: FACS Kd, AM1-CHO/hOrai1/hSTIM1-YFP cells
T12 construct: on AM1-CHO/hOrai1/hSTIM1-YFP, AM1/hOrai1, HEK-293 transfectants, endogenous on Jurkat and blood cells; in Westerns from cell lysates; also called hOrai1; CRACM1
Procedure: The equilibrium plates were centrifuged at 500 g for 3 minutes and cell pellets were washed twice with 200 μL of ice cold FACS buffer (1×D-PBS+2% FBS). The cells were then incubated with a secondary antibody, goat anti-human Fc Cy5 at 5 μg/mL and 100 μL per well for 1 h on ice in the dark. Following the incubation, the cells were washed twice with 200 μL of ice-cold FACS buffer before flow cytometry analysis. The GeoMean values gated on live cell population measure the bound [Ab]. The inverse of the GeoMean values that reflects theoretical free [Ag] in the equilibrium solution was then calculated. The inverse values of the GeoMean read were used in KinExA® Pro software for analysis and Kd calculation for each antibody. The free [Ag] measure was plotted against the starting concentration of titrating component and from these plots at two different cell concentrations the Kd was obtained from curve fitting using n-curve analysis in KinExA Pro software. […] Shown in Table 14 (below) are the equilibrium dissociation constant (Kd) values of invented mAbs determined by FACS Kd measurement.

[20] = target: T12, human Orai1; test: cell-based or functional assay

T6 sequence (Q8BWG9 other isoform, or with tags, fused parts or gaps): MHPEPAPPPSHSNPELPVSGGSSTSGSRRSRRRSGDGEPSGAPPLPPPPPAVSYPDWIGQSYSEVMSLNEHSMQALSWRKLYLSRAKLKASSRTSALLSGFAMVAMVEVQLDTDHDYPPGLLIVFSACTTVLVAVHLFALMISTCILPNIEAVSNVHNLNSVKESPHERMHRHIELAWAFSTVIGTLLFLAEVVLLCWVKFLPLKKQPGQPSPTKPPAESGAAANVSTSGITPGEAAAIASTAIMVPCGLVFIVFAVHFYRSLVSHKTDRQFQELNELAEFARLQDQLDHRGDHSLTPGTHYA
T10 sequence (Q8BWG9 other isoform, or with tags, fused parts or gaps): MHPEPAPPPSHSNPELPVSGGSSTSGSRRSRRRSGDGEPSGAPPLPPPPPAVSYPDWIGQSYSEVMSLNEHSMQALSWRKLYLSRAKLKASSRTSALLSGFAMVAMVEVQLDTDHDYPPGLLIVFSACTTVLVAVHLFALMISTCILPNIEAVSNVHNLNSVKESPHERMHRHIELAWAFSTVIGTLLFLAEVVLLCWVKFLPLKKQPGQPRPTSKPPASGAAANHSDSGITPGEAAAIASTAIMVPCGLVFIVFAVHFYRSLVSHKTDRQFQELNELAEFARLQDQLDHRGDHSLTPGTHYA
T8 sequence (Q8BWG9 other isoform, or with tags, fused parts or gaps): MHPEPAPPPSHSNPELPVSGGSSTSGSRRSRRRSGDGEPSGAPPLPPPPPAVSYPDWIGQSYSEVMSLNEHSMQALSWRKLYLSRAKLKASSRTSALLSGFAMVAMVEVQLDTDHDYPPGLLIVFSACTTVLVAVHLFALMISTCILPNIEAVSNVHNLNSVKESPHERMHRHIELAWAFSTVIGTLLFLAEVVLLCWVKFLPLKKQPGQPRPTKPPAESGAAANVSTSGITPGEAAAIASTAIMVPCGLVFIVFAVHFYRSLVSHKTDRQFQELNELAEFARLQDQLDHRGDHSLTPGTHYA
T2 sequence (Q8BWG9 other isoform, or with tags, fused parts or gaps): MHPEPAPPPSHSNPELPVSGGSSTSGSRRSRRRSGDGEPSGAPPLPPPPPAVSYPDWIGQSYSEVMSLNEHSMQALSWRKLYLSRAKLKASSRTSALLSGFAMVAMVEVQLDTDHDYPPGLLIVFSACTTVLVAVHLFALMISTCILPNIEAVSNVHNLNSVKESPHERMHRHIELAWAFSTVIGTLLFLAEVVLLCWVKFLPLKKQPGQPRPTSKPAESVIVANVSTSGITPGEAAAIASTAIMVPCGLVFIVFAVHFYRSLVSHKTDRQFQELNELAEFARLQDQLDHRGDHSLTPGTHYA
T9 sequence (Q8BWG9 other isoform, or with tags, fused parts or gaps): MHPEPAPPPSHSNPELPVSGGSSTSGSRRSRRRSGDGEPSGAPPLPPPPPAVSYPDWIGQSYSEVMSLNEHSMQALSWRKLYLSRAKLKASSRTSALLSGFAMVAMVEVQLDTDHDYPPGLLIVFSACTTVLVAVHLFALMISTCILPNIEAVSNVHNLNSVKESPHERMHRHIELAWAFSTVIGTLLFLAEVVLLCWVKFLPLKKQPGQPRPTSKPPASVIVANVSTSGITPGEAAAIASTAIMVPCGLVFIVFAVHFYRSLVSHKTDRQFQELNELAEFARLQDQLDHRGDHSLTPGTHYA
T12 sequence (Q96D31 whole entry): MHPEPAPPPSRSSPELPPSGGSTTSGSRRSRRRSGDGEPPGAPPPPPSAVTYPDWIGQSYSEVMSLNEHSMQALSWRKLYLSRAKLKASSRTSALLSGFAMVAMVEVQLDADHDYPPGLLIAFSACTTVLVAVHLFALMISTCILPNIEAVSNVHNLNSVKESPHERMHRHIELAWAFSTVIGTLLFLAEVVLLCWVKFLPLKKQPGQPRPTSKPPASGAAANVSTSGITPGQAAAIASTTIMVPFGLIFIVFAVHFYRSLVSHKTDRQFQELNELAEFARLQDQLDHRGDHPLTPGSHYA
T5 sequence (Q96D31 other isoform, or with tags, fused parts or gaps mutant): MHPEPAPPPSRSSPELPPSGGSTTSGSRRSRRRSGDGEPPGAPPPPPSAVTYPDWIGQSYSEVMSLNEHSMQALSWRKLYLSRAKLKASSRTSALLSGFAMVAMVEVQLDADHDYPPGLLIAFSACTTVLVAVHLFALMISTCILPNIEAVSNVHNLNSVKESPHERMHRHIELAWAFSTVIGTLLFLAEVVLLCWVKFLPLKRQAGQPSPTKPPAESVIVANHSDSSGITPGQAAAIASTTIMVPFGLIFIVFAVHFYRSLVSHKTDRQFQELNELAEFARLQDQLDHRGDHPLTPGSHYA
T11 sequence (Q8BWG9 other isoform, or with tags, fused parts or gaps mutant): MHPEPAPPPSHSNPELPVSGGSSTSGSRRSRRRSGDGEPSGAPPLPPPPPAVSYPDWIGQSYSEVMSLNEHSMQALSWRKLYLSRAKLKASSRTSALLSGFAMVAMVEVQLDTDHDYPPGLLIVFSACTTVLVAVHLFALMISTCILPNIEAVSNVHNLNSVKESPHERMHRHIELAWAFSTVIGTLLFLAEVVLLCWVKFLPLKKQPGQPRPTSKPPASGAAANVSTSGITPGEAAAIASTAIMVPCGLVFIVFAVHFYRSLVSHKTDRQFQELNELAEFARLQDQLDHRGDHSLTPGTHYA

Binder	POC (percent of control, FACS Geo Mean relative to binding to Ch. 1) [1]	POC (percent of control, FACS Geo Mean relative to binding to Ch. 1) [2]	POC (percent of control, FACS Geo Mean relative to binding to Ch. 1) [3]	POC (percent of control, FACS Geo Mean relative to binding to Ch. 1) [4]	POC (percent of control, FACS Geo Mean relative to binding to Ch. 1) [5]	POC (percent of control, FACS Geo Mean relative to binding to Ch. 1) [6]	POC (percent of control, FACS Geo Mean relative to binding to Ch. 1) [7]	POC (percent of control, FACS Geo Mean relative to binding to Ch. 1) [8]	POC (percent of control, FACS Geo Mean relative to binding to Ch. 1) [9]	POC (percent of control, FACS Geo Mean relative to binding to Ch. 1) [10]	POC (percent of control, FACS Geo Mean relative to binding to Ch. 1) [11]	binding result [12]	binding result [13]	binding result [14]	binding result [15]	binding result [16]	binding result [17]	binding result [18]	IC50 IFN-γ, whole blood Donor B [20]	IC50 IL-2, whole blood Donor A [20]	further results
mAb 5F7.1 (antibody, human IgG2, lambda, fully human IgG2 lambda, Campaign 2) heavy: QVQLVQSGAEVKKPGASVKVPCKASGYTFTDYYINWVRQAPGQGLEWMGWINPNNGGTNYAQKFQGRVTMTRDTSISTAYMELRRLRSDDTAVYYCARERGGYEDWFDPWGQGTLVTVSSASTKGPSVFPLAPCSRSTSESTAALGCLVKDYFPEPVTVSWNSGALTSGVHTFPAVLQSSGLYSLSSVVTVPSSNFGTQTYTCNVDHKPSNTKVDKTVERKCCVECPPCPAPPVAGPSVFLFPPKPKDTLMISRTPEVTCVVVDVSHEDPEVQFNWYVDGVEVHNAKTKPREEQFNSTFRVVSVLTVVHQDWLNGKEYKCKVSNKGLPAPIEKTISKTKGQPREPQVYTLPPSREEMTKNQVSLTCLVKGFYPSDIAVEWESNGQPENNYKTTPPMLDSDGSFFLYSKLTVDKSRWQQGNVFSCSVMHEALHNHYTQKSLSLSPGK light: QSVLTQPPSVSGAPGQRVTISCTGSSSNIGAGFDVHWYQQLPVTAPKLLIYGNRNRPSGVPARFSGSKSGTSASLAITGLQAEDEAVYYCQSYDSSLTVFGGGTKLTVLGQPKANPTVTLFPPSSEELQANKATLVCLISDFYPGAVTVAWKADGSPVKAGVETTKPSKQSNNKYAASSYLSLTPEQWKSHRSYSCQVTHEGSTVEKTVAPTECS	< 1%	< 1%	< 1%	< 1%	< 1%	< 1%	< 1%	< 1%	40 to 100%	40 to 100%	40 to 100%	no binding	no binding	no binding	no binding	no binding	no binding	no binding	11.8 nM	4.05 nM	Kd [19]: 0.185 nM; IC50 IL-2, whole blood Donor B [20]: 3.49 nM
mAb 5A1.1 (antibody, human IgG2, fully human, Campaign 2; lambda CL-1) heavy: QVQLVQSGAEVKKPGASVKVPCKASGYTFTDYYINWVRQAPGQGLEWMGWINPNNGGTNYAQKFQGRVTMTRDTSISTAYMELRRLRSDDTAVYYCARERGGYEDWFDPWGQGTLVTVSSASTKGPSVFPLAPCSRSTSESTAALGCLVKDYFPEPVTVSWNSGALTSGVHTFPAVLQSSGLYSLSSVVTVPSSNFGTQTYTCNVDHKPSNTKVDKTVERKCCVECPPCPAPPVAGPSVFLFPPKPKDTLMISRTPEVTCVVVDVSHEDPEVQFNWYVDGVEVHNAKTKPREEQFNSTFRVVSVLTVVHQDWLNGKEYKCKVSNKGLPAPIEKTISKTKGQPREPQVYTLPPSREEMTKNQVSLTCLVKGFYPSDIAVEWESNGQPENNYKTTPPMLDSDGSFFLYSKLTVDKSRWQQGNVFSCSVMHEALHNHYTQKSLSLSPGK VL: QSVLTQPPSVSGAPGQRVTISCTGSSSNIGAGFDVHWYQQLPVTAPKLLIYGNRNRPSGVPARFSGSKSGTSASLAITGLQAEDEAVYYCQSYDSSLTVFGGGTKLTVL	< 1%	< 1%	< 1%	< 1%	< 1%	< 1%	< 1%	< 1%	40 to 100%	40 to 100%	40 to 100%	no binding	no binding	no binding	no binding	no binding	no binding	no binding	1.66 nM	11.2 nM	IC50 IFN-γ, whole blood Donor A [20]: 8.15 nM; IC50 IL-2, whole blood Donor B [20]: 5.59 nM
mAb 5B5.2 (antibody, human IgG2, lambda, V domains shown, fully human IgG2 lambda, Campaign 2; same chains as 5B5.1) VH: QVQLVQSGAEVKKPGASVKVSCKASGYTFTDYYINWVRQAPGQGLEWMGWINPNSGGTDYAQKFQGRVTMTRDTSIRTAYMELNRLTSDDTAVYYCAREYGGYEDWFDPWGQGTLVTVSS VL: QSVLTQPPSVSGAPGQRVTISCTGSNSNIGAGFDVHWYQQLPGTVPKLLIYGNNNRPSGVPDRFSGSKSGTSASLAITGLQAEDEADYYCQSYDSRLTVFGGGTKLTVLG	< 1%	< 1%	< 1%	< 1%	< 1%	< 1%	< 1%	< 1%	40 to 100%	40 to 100%	40 to 100%	no binding	no binding	no binding	no binding	no binding	no binding	no binding	6.58 nM	1.39 nM	IC50 IL-2, whole blood Donor B [20]: 3.1 nM
